Measured values from patent publication US9051572.

How the values were obtained:
[1] = target: in vitro translated [35S] TAp73α (UniProt O15350)
[2] = target: Purified recombinant ubiquitin containing an amino terminal FLAG sequence (UniProt P0CG48)
[3] = target: in vitro translated [35S] TAp73δ (UniProt O15350)
[4] = target: in vitro translated [35S] p53 (UniProt P04637)

GST-Itch MUT (C830A), Thr 277 to Glu 903
in vitro ubiquitination (higher molecular weight [35S] species on SDS-PAGE) [1]: this mutant, that retains the ability to bind TAp73 ... lost the ability to promote TAp73 ... ubiquitination | ELISA for self-ubiquitination of Itch, OD450 signal [2]: a background signal of 0.093 was obtained

GST-Itch, from Thr 277 to Glu 903 (lacking the N-terminal C2 domain)
in vitro ubiquitination (higher molecular weight [35S] species on SDS-PAGE) [3]: The inability of Itch to ubiquitinate p738 and p53 | in vitro ubiquitination (higher molecular weight [35S] species on SDS-PAGE) [1]: protein was ubiquitinated, as shown by the appearance of discrete higher molecular weight | in vitro ubiquitination (higher molecular weight [35S] species on SDS-PAGE) [4]: The inability of Itch to ubiquitinate p738 and p53 | ELISA for self-ubiquitination of Itch, OD450 signal [2]: an assay OD450 signal of 1.972 was obtained
